Reference: the nanobody polyreactivity screen of Harvey et al. (2022)

Test: yeast display, Sf9 membrane polyspecificity reagent, FACS + sequencing; frameworks hold sequencing errors
How it was run: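 Synthetic nanobody libraries on Saccharomyces cerevisiae BJ5465 were galactose-induced for 36–48 hours, stained 1 hour at 4 °C with 10% biotinylated, detergent-solubilized Sf9 membrane reagent and enriched on streptavidin microbeads. FACS then separated cells into low and high (top ~1%) gates by anti-HA (expression) and streptavidin (reagent binding) fluorescence. Genes were colony-PCR amplified, MiSeq 2 × 250 sequenced and CDR-length filtered. A clone's polyreactivity label is that of its gate of origin.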

Row | Sequence | polyreactivity (PSR sort gate)
1 | QVQLVESGGGLVQAGGSLRLSCAASGRIFLVYAMGWSRPAPGKERELVAAISYSGGRTYYADSVKGRFTISRDNAKNTVYLQMNSLKPEDTAVYYCAASPRYSYLAQGLDYDYWGQGTQVTVSS | high polyreactivity
2 | QVQLVESGGGLVQAGGSLRLSCAASGSTFSVYAMGLYRQAPGKERELVPAITWSGGSTYYADSVKGRFTISRDNAKNTVYLQMNSLKPEDTAVYYCNAERWLATPTVPWYLYNYWGQGTQVTVSS | low polyreactivity
3 | QVQLVESGGGLGQAGGSLRLSCAASGRTFYDNAMGWYRPAPGKERELVAAISSSGSSTYYADSVKGRFTISLDNAKNTVYLQKNSLKPEDTAVYYCSASYTDYYFGFGTDVRYGYWGQGTQVTVSS | high polyreactivity
4 | QVQLQESGGGLVQASGSIFHEPNMGWYRQAPGKERELVAGISSGANTYYADSVKGRFTISRDNAKNTVYLQMNSVKPEDTAVYHCAVVVHLYTDLRNWGQDTQVTVSS | high polyreactivity
5 | QDQLVESGGGLVQAGGSLRLSCAASGSILRQYAMGWYRQAPGKERELVATITGDGSTNYADSVKGRFTISRDNAKNTVYLQMHSLKPEDTAVYYCAVIGYHYSAISPPSQTRQGYDYWGQGTQVTVSS | low polyreactivity
6 | QVQLVESGGGLVQAGGSLRLSCAASGRTFYKNAMGWYRQAPGKERELVARISRGGSTNYADSVKGRFTISRDNAKNTVYLQMYSVKPEESAVYYCATEYGTHGKTYDYWGQGSQVTVSS | high polyreactivity
7 | QVQLVESGGGLVQAGGSLRLSCAASGRISPNNAMGWYRQAPGKERELVAAITASGGTTYYADSVKGRFTISRDNAKNTVYLQMNSLKPEDTAVYYCAAAVWYRGWYRYDYWGQGTQVTVSS | low polyreactivity
8 | QVQLVESGGGLVQAGGSLRLSCAASGRTFSGNALGWSTHAPGKERELVAAITSSGGSTYYADSVKGRFTISRENAKNTVYLQMNSLKPEDTAVYYCNTDPQGRTVVYGGDDYWGQGTQVTVSS | low polyreactivity
9 | QVQLVESGGGLVQAGGSLRLSCAASGSTFFYYAMGWYRQAPGKERELVAAITSSGGRTYYADSVKGRFTISRDNAKNTVYLQMNSLKPEDTAVYYCAARDYRQSRYEYWGQGTQVTVSS | high polyreactivity
10 | QVQLVESGGGLVPAGASLRLSCAASGSTSYVYAMGWYRKAPGKERELVAAISGSGGRTYYADSVKGRFTISRDNAKNTVYLQMNSLKPEDTAVYYCNAMPRPSYPFDYWGQGTQVTVSS | high polyreactivity
11 | QVQLLESGGGLVQSGGSLRLSCADSGNIFVTYAMGWYRQAPGKESELVAGITSSDDSTYYADSVKVRFTISLDNAKNTVYLQMNSLKPEDTAVYYCATYYWEVGIGQFYYWGQGTQVTVSS | low polyreactivity
12 | QVQLVESGGGLVQAGGSLRLSCAASGRTFLYSTMGWYRQAPGKERELVAAISKSVGRTYYADSVKGRFTISRDNAKNTVYLQMNSLKPEDTAVYYCAKRWYAGAQHGFDYLGQGTQVTVSS | low polyreactivity
13 | QVQLVESGGGLVQAGGSLRLSCAASGRIFYYYTMGWYRQAPGKEREVVAAITKGDDDTSYADSVKGRFTISRDNAKNTVYVQMNSLKPEDTAVYYCAVEIVLVPFVVGYDYWGQGTQVTVSS | low polyreactivity
14 | QVQLVESGGGLVQAGGSLRLSCAASGSTFYYNAMGWYRQAPGKERELVARISRSGGSTYADSVKGRFTISRDNAKKTVSFQMNSLKPEDTAVYYCNADAYGTQEFTSYAVRYDYWGQGTEVTVSS | low polyreactivity
15 | QVQLVESGGGLVQAGVSLRLSCAASAFILEGYAMGWYTQAPGKERELVAAISDSGGSTYYADSVKGRFTISRDNAKNTVYLQMNSLKPEDTAVYYCATAYYWWTAYSYSYDHWGQGTQVTVSS | high polyreactivity
16 | QVQLVESGGGLVQAGGSLRLSCAASGSTLYCNAMGWYRQAPGKERELVAAISRSGGSTYYADSVKGRFTISRDNAKKTVYLQMNSLKPEDTAVYYCAARRYVPHTEYYYWGQGTQGTVSS | low polyreactivity
17 | QVQLVESGGRLVQAGGSLRLSCAASGRTFYGYAMGWYRQAPGKEREFVAAISVGGGSTYYADSVKGRFTISRDKAKNTVYLQMNSLKPEDTAVYYCAAYTRYWSYGYWGQGTQVTVSS | high polyreactivity
18 | QVQLVESGGGLVQAGGSLRFSCAASGFTFTVYAMGWYRQAPGKGRELVAAISWNGGSTYYADSVKGRFTISRDNATNTDYLQRNSLKPEDTAVYYCNKYYYRGVRYYRDHDYWGQGTQVTVSS | high polyreactivity
19 | QVLLVESGGGLVQAGGSLRLSCAASGRTFARNTMGWYRQAPGKERELVAGITSTGSTNYADSVKGRFTISRDNAKNTVYLQMNSLKPEDTAVYYCNARRYRPGSQYGYDYWGQGTQVTVSS | high polyreactivity
20 | QVQLVESGGGLVQAGGSLRLSCAASGRIFRYYAMGWYRQSPGKEREFVAAINWSGGSTYYADSVKGRITISRDNAKNTVYLQMNSLKREDTAVYYCAALITQSYDYWGQGSQVTVSS | high polyreactivity
21 | QVQLVESGGGLVQAGGSLRLSCAASGNIFYRYAMGWYRQAPGKERELVAAISGNSGNTYYADSVKGRFTISRDIAKNTVYLQMNSLKPEDTAVYYCAAERRAFGHYSWGQGTQVTVSS | high polyreactivity
22 | QVQLVESGGGLVQAGGSLRLSCAASGIIFGYYTMGWYRQAPGKERELVARITTGSSTNYADSVKGRFTISRDNAKNTVYLQMNSLKPEDTAVYYCAAVPIAADKANGYDYWGQGTQVTVSS | low polyreactivity

Row | Sequence | polyreactivity (PSR sort gate)
23 | QVQLVDSGGGLVQAGGSIRLSCSPSGGTFGLNSMGWYRQAPGQERELVADIDGRGGSTYYADSVKGRFTISRDNAKNTVYLQMNRLKPEDPAVYYCADLAPFLSVPSELDYWRQGTQVTVSS | low polyreactivity
24 | QVQLVESGGGLVQAGGSLRLSCAASGFTFYYYTMGWYRQAPGKERELVAGITSRGGSTTYADSVKGRFTISRDNAKNTVYLQMNSLKPEDTAVYYCNARWAVHSGYDYWGQGTLVTVSS | high polyreactivity
25 | QVQLVESGGGLVQAGGSLRLSCAASGRILYPYAMGWYIQAPGKERELVAAITFIGGSTYYADSVKGRFTISRDNAKNTVYLQMNSLKPEDTAVYYCNAKPHRPSLLRWRIGNYWGQGTQVTVSS | high polyreactivity
26 | QVQLVESGGGLVQAGGSLRLSCAASGFTFFGNAMGWYRQAPGKERELVAAITGRAGRTYYADSVKGRFTISRDNAKNTVYLQMNSLKPEDTAVYYCAAKIRTSDMGYWGQGTQVTVSS | high polyreactivity
27 | QVQLVESGGGLVQAGGSLRLICAASGRTFTLNVMGWYRQAPGKETEFVATITWGGGRTYYADSVKGRFTISRDNAKNTVYLQMNSLKPVDTAVYYCAGQLAKTIRGRGYNSWGQGTQVTVSS | low polyreactivity
28 | HVQLQESAGGLVQAGGSLRLSCAASGTISSREAMGWYSQAPGKERDFVATIASGTTTYYADSVKGSFTISRDNAENTVYLQTNTLKPEDTAVYYCAAPTIQIYPFYYWGHGTQVTVSS | high polyreactivity
29 | QVQLEESGGGLVQAGGSLRLSCAASGSIFYSNAMGWYRQAPGKEREFVAAISAGGGSTYYADSVKGRFTISRDNEKNTVYLQMNSLKPEDTSVYYCAAQPYNIIYPYDYWGQGTQVTVSS | low polyreactivity
30 | QVQLVESGGGLVQAGGSLRLSCAASGRTFAHYTMGWYRQEPGKERELVAGITRGGSTYYADSVKGRFTISRDNAKNNVYLQMNSVKPEDTAVYYCNAVTNYFYRRMEYWGQGTQVTVSS | high polyreactivity
31 | QVQLVESGGVLVQAGGSLRLSCAASGSIFGYNVMGRYRQAPGKERELVAAITYSGGSTYYADSVKGRFTISRDNAKNTVYLQMNSLKPEDTAVYYCAKVTGRRFPAYGYDHWGQGTQLTVSS | high polyreactivity
32 | QVQLVESGGGLVQAGGSLRLSCAASGRTFGRYAMGWYRQAPGKERELVAVISWSDGGTNYADSVKGRFTISRDNAKNTVYLQMNSLKPEDTAVYYCNAELSFRYPVFRELDYWGQGTQVTVSS | low polyreactivity
33 | QVQLVESGGGLVQAGGSLRLSCAASGSTFVGNAMGWYRQAPGKERELVAAITWSGGTYYADSVKGRFTISRDNAKNTVYLQMNSLKPEDTAVYYCNAEWRVYPDLYDYWGQGTQVTVSS | low polyreactivity
34 | QVQLVESGGGLVQAGGSLRLSCAASGSIFVAYAKGWYRPAPGKERELVAAISSSGGTTYYADSVKGRFTISRDNAKITVYLQMNSLKPEDSAVYYCAARDYKYYYWGQGTQVTVSS | high polyreactivity
35 | QVQLVESGGGLVQAGGSLRLSCAASGIIFDFYAMGWYRPAPGKERELVAAITSSGGSTYYADSVKGRFTISRDNAKNTVYLQMNSLKPEDTAVYYCAAEYTIYGTDQRYNYWGQGTQVTVSS | low polyreactivity
36 | QVQLVESGGGLVQAGGSLRLSCAASGSTIADKAMGWYRQAPGKERELVAAITRSGVRTYYADSVKGRFTISRDNAKNTVYLQMNSLKPEDTAVYYCAKRTYPSRIYDYWGQGTQVTVSS | low polyreactivity
37 | QVQLVESGGGLVQAGGSLRLSCAASGRTSQEYAMGWYRQAPGKERELVAGITRRGGTTYYADSVKGRFTISRDNAKNTVYLQMNRLNPEDTAVYYCAKRYTHSFKYEYWGQCTQVTVSS | high polyreactivity
38 | QVQLVESGGGLVQAGGSLRLSCAASGRTFRSNAMGWYRQAPGKERELVATISGRGGSTYYADSVKGRFTISRDNAKNTVYLQMNSLKPEDTAVYYCAKRTTLIRDYEYWGQGTQVTVSS | high polyreactivity
39 | QVQLVESGGGLVQAGGSLRLSCAASGSIFWTNAMGWYRQAPGKERELVARITYSGGSTYSADSVKGRFTISRDNAKNTVYLQMNSLKPEDTAVYYCNARTHGWPYSRYYYWGQGTQVTVSS | high polyreactivity
40 | QDQLVESRGGLVQAGGSLRLICDASGFTFDSNAMVWYRQEPGKERQLVAAISARGTSTYYADSVKGRFTISRDNAKNTVYLQMNSLKPEDTAVYDCNTGESSWYLPEEDYWGQGTQVTLSS | low polyreactivity
41 | QVQLVESGGGLVQAGGSLRLSCAASGSTFDWYVMGWYRKAPGKERELVAAINQGSGSTYYADSVKGRFTISRDNAKNTVYLQMNSLKPEDTAVYYCAADRYGAGYLYWPYDYWGQGTQVTVSS | low polyreactivity
42 | QVQLVESGGGLVQAGGSLRLSCDASALTIITNAMGWYRQAPGKERELVAAISGTGGSTYYADSVKGRFTISRDNAKYTVYLQMNSLKPEDTAVYYCAAAPYTFWVGDSWGQGTQVTVSS | high polyreactivity
43 | QVQLVESGGGLVQAGGSLRLSCAASGSTLLGNTMGWYRQAPGKERELVAAISWSGGSTYYADSVKGRFTISRDNAKNTVYLQMNSLKPEDTAVYYCNALGRENKGSYGYDYWGQGTQVTVSS | low polyreactivity
